The nanobody polyreactivity screen of Harvey et al. (2022)

Assay: yeast display, Sf9 membrane polyspecificity reagent, FACS + sequencing; frameworks hold sequencing errors
Method in brief: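 Galactose induction of a Saccharomyces cerevisiae BJ5465 synthetic nanobody display library ran 36–48 hours. The cells were then stained for 1 hour at 4 °C with 10% biotinylated, detergent-solubilized Sf9 membrane reagent, pulled down on streptavidin microbeads and FACS-sorted into low and high (top ~1%) gates on expression and reagent-binding fluorescence. Labels for polyreactivity follow the gate of origin.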

| Sequence | polyreactivity (PSR sort gate) |
| --- | --- |
| QVQLVESGGGLVQAGGSLRLSCAASGFIFDQNAMGCYRQAPGKEREFVAAISSRGSRTYYADSVKGRFTISRDKAKNTVYLQMNSLKPEDTAVYDCAAGYWARLYDYDYWGQGTQVTVSS | high polyreactivity |
| QVQLVESGGCLVQAGGSLRLSCAASGSIFRYYAMGWYRQAPGKDRELVAAISWSSGRTYYADSVKGRFTISRDNAKNTVYLQMNSLKPEDTAVYYCAAGVPGYPRYEYDYWGQGTQVTVSS | high polyreactivity |
| QVQLVESGGGLVQEGGSLRLICAASGIIFYFYAMGWYRQAPGKERELVAAISSGGGSTYYADSVKGRFTISRDNAKNTVYLQMNSLKPEDTAVYYCAAKIGRNFDWGQGTQVTVSS | high polyreactivity |
| QVQLVETGGGLVQEGGSLRLSCAASGRTFYSYAMGWYRQAPGKERELVARISSGGSTNYADSVKGRFTISRDNAKNTVYFQMNSLKPEDTAVYYCAAVRHRAMDYWGQGTQVTVSS | low polyreactivity |
| QVQLVESGGGLVQAGGSLRLSCAASGRIFYGNARGWYRQAPGKERELVATISSSGGRTPYADSVKGRFTISRDNAKNTVYLQMNSLKPEDTAVYYCAAQGYWTGYDYWGQGTQVTVSS | high polyreactivity |
| QVQLVESGGGLLQAGGSLRLSCAASGGMFKYNAMGWYRQAPRKARELVPAINYSGGRTYYADSVKGRFTISRDNAKNTVYLQMTSLKPEDTAVDYCNALTRGHTGQPYTYDYWGQGTQVTVSS | high polyreactivity |
| QVQLVESGGGLVQAGGSLRLTCAASGRTFDQYAMGWYRQAPGKERDLVAAITSGGSTYYADSVKGRFTISRDNAKNTVYLQMNSLKPEDTAVYYCYTDSSFWGYYIAQVNERDYWGQGTQVTVSS | low polyreactivity |
| QVQLVESGGGLVQAGGSLRLSCAASGRTFVTYTMGWYRPAPGKERELVAAISRDGRTYYADSVKGRFTISRDNAKNTVYLQMNSLKPEDTAVYYCATRYKSPSFDYWGQGTQVTVSS | high polyreactivity |
| QVQLVESGGGLVQAGGSLRLSCAASGSIFYRNAMGWYRQAPGKERELVAAISGRGGSTYYADSVKGRFTISRDYAKNTVYLQMYSLKPEDTAVYYCAKDHYRERKYDYWGQGTQVTVSS | low polyreactivity |
| QVQLEESGGGLVQAGGSLRLSCAASGSTCPTNAIGWYRQAPRKERELVADITIRRGGTSYADSVKGRFTMSRDNAKNTVYLQMNSLKPEDTAVYYCARSKSTELKRLLYDSWGQGTQVTVSS | low polyreactivity |
| QVQLVESGGGLVQAGGSLRLSCAASGRTFYKNTMGWYREAPGKEREMVATISQRGGSTYYADSVKGRFTISRDNAKNTVFLQMNSLKPEDTAVYYCYARHYYIWWRSPTRTAMNYWGQGTQVTVSS | high polyreactivity |
| QVQLVESGGGLVQAGGSLRLSCAASGFIFSRYFMGWYRQAPGKERELVAAISWNVGSTYYADSVKGRFTISRDNAKNTVYLQMNSLKPEDTAVYYCAARDRRSVTMDYWGHGTQVTVSS | high polyreactivity |
| QVQLVESGGGLVQAGGSLRLSCAASGRILYPYAMGWYRQAPGKERESVAAITFRGGNTYYADSVKGRFTISRDQAKNTVYLQMNSLKPEDTAVYYCAAPQRWTYAYDYWGQGTQVTVSS | high polyreactivity |
| QVQLVESGGGLVQAGGSLRLSCGASGRIISKYAMGWYRQAPGKERELVAAITSRGGNTYYAVSVKGRFTISRDNAKNTVYFQMYSLNPEDTAVYSCNTSPQSRYVFGRVDSWGQGTQVTVSS | high polyreactivity |
| QVQLVESGGGLVQAGGRLRLSCAASGLTFGGNAMGWYRQAPGKERELVAAISWSDDTTDYADSVKGLFTISRDNAKNTVYFQMNRLKPEDTAVYYCAARLPFEHVDYWGQGTQVTVSS | low polyreactivity |
| QVQLVESGGGLVQAGGSLRLSCAASGSIFHYNAMGWYRQAPGKERELVAAITTSGGSTYYADSVKGRFTISRDNAKNTVYLQMNSLKPEDTAVYYCAADLVWTRYFGYAPDYYIEFDYWGQGTQVTVSS | high polyreactivity |
| QVQLVESGGGLVQAGGSLRLSCAASGITFYHYAMGWYRQAPGKERELVAAITRSGGRTYYADSVKGRFTISRDNAKNTVFLQMNSLKPEDTAVYYCATDDRQGYFRSPREYDYWGQGTQVTVSS | high polyreactivity |
| QVQLVESGGGLVQAGGRLRLSCAASGFIFTEYAMGWYRQSPGKERELVAAINSGGRTKYADSVKGRFTISRDNAKNTVFLQMNSLKPEDTAVYYCAARRFPTYDYWGQGTQVTVSS | high polyreactivity |
| QVQLVESGGGLVQAGCSLRLSCAATGCSFKYNTMGWYRQAPGKERELVAAITSGGGSTYYADSVKGRFTISRDNAKNTVYLPMNRLKPEDTAVYYCAAYRRNTYWGQGTQVTVSA | high polyreactivity |
| QVQLVESGGGLVQAGGSLRLSCAASGLIFYKYAMGWYRQAPGKERELVAAITRGGGSTSYADSVKGRFTISRDNAKNTVYLQMNCLKPEDTAVYYCNAAPYTRALQGEFDYWGQGTQVTVSS | high polyreactivity |
| QVQLGESGGGLVQAGGSRRLSCAASGLIFASNAMGWYRQAPGKEREFDAAISISGGSTYYADSVKGRFTISRDNAKNTVYLQMNSLKPEDTAVYYCAAKLYTVRRPELDYWGQGTQVTVSS | low polyreactivity |
| QVQLVESGGGLVQAGGSLRLSCSASGFTIYYYTMGWYRQAPGKERELVAAITRSGGRTYYADSVKGRFTISRDNSKNTVYLQMISLKPEDPAVYYCAASTYNNFWYLGYGYWGQGTQVTVSS | high polyreactivity |

| Sequence | polyreactivity (PSR sort gate) |
| --- | --- |
| QDQLVESGGGLVQAGGSLRLSCAASGFTFDRYAMGWYRQAPGKERELVAAITSSGGSTYYADSVKGRFTISRDNAKNTVYLQMNSLKPEDTAVYYCAVAYSSHTSYYSWGQSTQVTVSS | low polyreactivity |
| QVQLVESGGGLVQAGGSLRLSCAASGSTFPPYAMGWYRQAPGKERELVAAIDWSDGTTYYADSVKGRFTISRDNAKNTVYLQMNSLKPEDTAVSYCSASLSQSEFDYWGQGTQVTVSS | low polyreactivity |
| QVQLEDSGGGLVQAGGSLPLSCAASGLTFYVNARGWNRQAPGKERELVAGIDSGGSTYYAASVKGRFTISRDNAKNTVYLQMNSLKPEDTAVYYCAADEGYVWPYYGWGFGKYDYWGEGTQVTVSS | low polyreactivity |
| QVQLVESGVRLVQAGGRLRLSCAASGRIFDHNAMGWYRQAPGKERELVAAIDSGTSTNYADSVKGRFTISRDNAKNTVYLQMNSLKPEDTAVYYCARLLGPVRHKYDYDYWGQGTQVTVSS | low polyreactivity |
| QVQLVESGGGLVQAGGSLRLSCAASGFTFRYYAMGWYRQAPGKERELVAAITRSGGSTSYADSVKGRFTISRDNAKNNVYLQMNSLKPEDTAVYYCNTSTSRVPGNGDYWGQGTQVTVSS | high polyreactivity |
| QVQLVESGGGLVQAGGSLRLSCAASGFIFVSNAMGWYRQAPGKERELVATITNGDRTYYADSVKGRFTISRDNAKNTVYLQMNSLKPEDTGVYYCNADDQVGSIWKWYGKYEYRGQGTQVTVSS | low polyreactivity |
| QVQLVDSGGGLVQAGGSLRLSCAASGRNFLWNAMGWDRQAPGKERELVAGISWRGSSTYYAVSVKGRFTISRDNAKNTVYLQMNSLKPEDTAVYYCAAQGRPYRGQRTGAYGYWGQGTQVTVSS | high polyreactivity |
| QVQLVESGGGLVKAGVSLRLICAASGSTFWYNDRGSYRQSPGKERELVASNSWSGGDTYYADSVKGRLTISRDNAQNTVYFQMNRLKPEDTAVYNCAKGNNWISRLMDYWGQGTQVTVSS | low polyreactivity |
| QVQLVESGGVLVQAGGSLRLSCAASGFIFRSNGMGWYRQARGKERELVAVITSSTGSTSYADSVKGRFTISRDNAKNTVYLQMNSLKPEDTAVYSCAADYQFGRGAEPYVFFDPEMDYWGQGTQVTESS | low polyreactivity |
| QVQLVESGGGLVQEGGSLRLSCAASGFTFARYAMGWYRQSPGKERELVARISSRGGSTNFADSVKGRFTISRDNAKNTVYLQMNSLKPEDTAVYYCAKYYSSKYYYWGQGTQVTVSS | high polyreactivity |
| QVQLVESGGGLVQAGGSLRLSCAASGSIFYQNALGWYRQAPGKETELVAAMSRSGGSTYYADSVKGRFTISRDNAKNTVYLQMNSLKPEDTAVYYCAARISRQRSYSRDYWGQGTQVTVSS | high polyreactivity |
| QVQLVESGGGLVQAGGSLRLSCAASGSIFYYYAMGWYRQAPGKERELVAAINSGVSTYYADSVKGRFTISRDNAKNTVYLQMNSLKPEDTAVYYCDATGHNLYGSWFSWTPDTYDYWGQGTQVTVSS | low polyreactivity |
| QVQLVESGGGLVQAGGTLRLSCAASGRTIKQNAMGWYRQAPGKERELVATIRNGGNTNYADSVKGRFTISRDNAKNNVYLQMNSLKPEDTAVYYCAAARSPYKYSYWGQGTQVTVSS | high polyreactivity |
| QVQLVESCGGLVQAGGSLRLSCAASGYTFSFNAMGWYRQAPGKESELVADINLSGGYTYYADSVKGRFTISRDNAKNTVYLQINSLKPEDTAVYYCAADLYDYWTEGYAFLFEYWGQGTQVTVSS | low polyreactivity |
| QVQLVESGGGLVQAGGSLRLSCAAYGSTLSPYTMGWYRQAPGKERELVAAITQSGGSTYYADSVKGRFTISRDKAKYTVYLQMNSLKPEDTAVYYCNRDYNADYDWGQGTQVTVSS | high polyreactivity |
| QVQLVESGGGLVQAGGSLRISCAASGFILKDNAMGWYRQAPGKERELFAAISSGGGTYYADSEKGRFTITRDNAKNTVYLQMNSLNPEDTAVYYCNGDDLYSLNDSSEDYWGQGSQVTVSS | high polyreactivity |
| QVQLVESGGALVQAGGSLRLSCAASGSIFGLKDMRWYRPAPGKEREFVAAITWSGGSSTYYADSVKGRFTISRDNAKITVSLQMNSVKTEDTAVYYCAADDRTLPADVDYWGQGTQVTVSS | high polyreactivity |
| QVQLVESGGGLVQAGGSLRLSSAATGSIIGFYAMGWYRQAPGKERELVAAITRGGGSTFYADSVKGRFTISRDNAKNTVYLQINSLKPEDTAVYYCAATVYRYHGPGYYYWGQGTQVTVSS | high polyreactivity |
| QVQLVESGGGLVQAGGSLRLSCAASGRTFGNNAMGWSRPAPGKERELVAAITASGGRTYYADSVKGRFTISRDNAKTTVYLQMNSLKPEDTAVYYCADGGPRVNGYGGYYWGQGTQVTVSS | high polyreactivity |
| QVQLVESGGGLVQAGGSLRLSCAATGYTFYIYAMGWYRQARGKERELVASITSDGRTNYADSVKGRFTISRDNAKNTVYLQMNSLKPEDTAVYYCATVGKVHDRLVAMDYWGQGTQVTGSS | low polyreactivity |
| QVQLVESGGGLVQAGGSLRLSCAASGFIFYRYAMGWYRQAPGKERELVAAISSGGGRTYYADSVKGRFTISRDNAKNTVYLQMNSLKPEDTAVYYCAKGYFWSSYVSSRYGSWGQGTQVTVSS | high polyreactivity |
